The text below walks through data of PMC12412624, “Engineered Cas12j‐8 is a Versatile Platform for Multiplexed Genome Modulation in Mammalian Cells”.

For data set [1], the system named is T1, dCas12j-8 D313R D313R;D369A;E567A;D658A (bacteriophage (metagenome)).
T1 sequence: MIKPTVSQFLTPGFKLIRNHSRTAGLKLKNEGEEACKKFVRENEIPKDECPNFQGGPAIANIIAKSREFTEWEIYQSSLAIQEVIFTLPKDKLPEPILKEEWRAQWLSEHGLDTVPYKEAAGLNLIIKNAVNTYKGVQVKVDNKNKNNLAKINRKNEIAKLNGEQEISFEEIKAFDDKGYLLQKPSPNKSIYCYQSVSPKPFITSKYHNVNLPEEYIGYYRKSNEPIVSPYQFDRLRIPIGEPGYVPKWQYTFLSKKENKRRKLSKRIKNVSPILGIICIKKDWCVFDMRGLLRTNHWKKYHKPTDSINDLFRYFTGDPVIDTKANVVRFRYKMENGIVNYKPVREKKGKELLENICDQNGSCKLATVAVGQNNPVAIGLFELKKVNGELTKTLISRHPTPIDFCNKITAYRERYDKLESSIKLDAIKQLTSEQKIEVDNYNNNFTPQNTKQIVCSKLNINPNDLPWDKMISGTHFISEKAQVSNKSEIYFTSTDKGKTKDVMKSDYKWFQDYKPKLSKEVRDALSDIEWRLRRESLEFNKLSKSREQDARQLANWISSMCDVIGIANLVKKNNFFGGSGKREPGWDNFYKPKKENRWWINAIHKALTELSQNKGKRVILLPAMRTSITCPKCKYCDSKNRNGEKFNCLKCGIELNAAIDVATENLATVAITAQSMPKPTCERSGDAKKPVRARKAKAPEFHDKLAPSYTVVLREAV
The settings on record: HEK293T cells; panel 1c (compare within a panel only); scale: mean GFP / mean GFP of wild type, printed, no background subtraction.

Data set [2] relates to T2, dCas12j-8 E101R E101R;D369A;E567A;D658A (bacteriophage (metagenome)).
T2 sequence: T1 sequence with E101R, R313D
Conditions: HEK293T cells; panel 1c (compare within a panel only); scale: mean GFP / mean GFP of wild type, printed, no background subtraction.

For data set [3], the system named is T3, dCas12j-8 E258R+D313R+E547R E258R;D313R;E547R;D369A;E567A;D658A (bacteriophage (metagenome)).
T3 sequence: T1 sequence with E258R, E547R
Conditions: HEK293T cells; panel 1e (compare within a panel only); scale: mean GFP / mean GFP of wild type, printed, no background subtraction.

Data set [4] has as its system T4, dCas12j-8 E535R E535R;D369A;E567A;D658A (bacteriophage (metagenome)).
T4 sequence: T1 sequence with R313D, E535R
Conditions: HEK293T cells; panel 1c (compare within a panel only); scale: mean GFP / mean GFP of wild type, printed, no background subtraction.

Where a chain is given by its changes, count along the chain named.

For “CUUUCAAGACUAAUAGAUUGCUCCUUACGAGGAGACACUCCCUAUCAGUGAUAGAG / TTNACTCCCTATCAGTGATAGAG / CTCTATCACTGATAGGGAGTNAA [TetO]”, the binding signal in data set [1] turned out to be 1.59; in data set [2], 0.711; in data set [3], 3.99; in data set [4] it was 0.495.
